Starred links: 1 amine or outer side, 2 acyl side, 3 side chain; linkers in the order of their positions; H or OH if unused. Non-standard residues stand in square brackets, D forms with d. 3AzaTyrEtNAc = (2S)-3-[6-(2-acetamidoethoxy)-3-pyridyl]-2-amino-propanoic acid, CC(=O)NCCOc1ccc(C[C@H](N[*:1])C(=O)[*:2])cn1; TyrEtNAc = (2S)-3-[4-(2-acetamidoethoxy)phenyl]-2-amino-propanoic acid, CC(=O)NCCOc1ccc(C[C@H](N[*:1])C(=O)[*:2])cc1; 2PyrimAla = (2S)-2-amino-3-(pyrimidin-2-yl)propanoic acid, O=C([C@H](Cc1ncccn1)N[*:1])[*:2]; F4ptCCA = trans-4-[4-(2-amino-2-carboxyethyl)phenyl]cyclohexanecarboxylic acid; Phe(4-(cis-4-COOH-cHex)) = N[C@@H](Cc1ccc([C@H]2CC[C@@H](C(=O)O)CC2)cc1)C(=O)O; dPro(4R-(4-pyridylmethyl)) = O=C(O)[C@H]1C[C@@H](Cc2ccncc2)CN1; Ala(piperidin-4-yl) = O=C([C@H](CC1CCN([*:3])CC1)N[*:1])[*:2]; Trp(βS-Me,4-F) = C[C@@H](c1c[nH]c2cccc(F)c12)[C@H](N)C(=O)O; Bip(4'-COOH) = N[C@@H](Cc1ccc(-c2ccc(C(=O)O)cc2)cc1)C(=O)O; Ala(1-bicyclo(1.1.1)pentyl) = N[C@@H](CC12CC(C1)C2)C(=O)O; dPro(4R-Bzl(4-F)) = O=C(O)[C@H]1C[C@@H](Cc2ccc(F)cc2)CN1; Ala(pyrimidin-5-yl) = N[C@@H](Cc1cncnc1)C(=O)O; Phe(4-COOH) = N[C@@H](Cc1ccc(C(=O)O)cc1)C(=O)O; Ala(4-Pyridazinyl) = N[C@@H](Cc1ccnnc1)C(=O)O; Ala(2-pyrazinyl) = N[C@@H](Cc1cnccn1)C(=O)O; Pro(cis-4-F) = O=C(O)[C@@H]1C[C@H](F)CN1; Ala(4-THP) = N[C@@H](CC1CCOCC1)C(=O)O; 4Pal = N[C@@H](Cc1ccncc1)C(=O)O; d(αMeS) = C[C@@](N)(CO)C(=O)O; Orn = NCCC[C@H](N)C(=O)O; Dab = NCC[C@H](N)C(=O)O; Dap = NC[C@H](N)C(=O)O; Aib = CC(C)(N)C(=O)O
biological target: Recombinant human IL-1β (BioLegend 579404) (human, UniProt P01584 117-269); experiment: cell-based or functional assay

MRC5 IC50	Binder
0.018 nM	cyclo([Bip(4'-COOH)][Ala(1-bicyclo(1.1.1)pentyl)][Phe(4-COOH)]G[Pro(cis-4-F)][Trp(βS-Me,4-F)][Aib]SW[d(αMeS)][Ala(pyrimidin-5-yl)]Q[Dab]G[dPro(4R-(4-pyridylmethyl))]) (SMILES C[C@@H](c1c[nH]c2cccc(F)c12)[C@@H]1NC(=O)[C@@H]2C[C@H](F)CN2C(=O)CNC(=O)[C@H](Cc2ccc(C(=O)O)cc2)NC(=O)[C@H](CC23CC(C2)C3)NC(=O)[C@H](Cc2ccc(-c3ccc(C(=O)O)cc3)cc2)NC(=O)[C@H]2C[C@@H](Cc3ccncc3)CN2C(=O)CNC(=O)[C@H](CCN)NC(=O)[C@H](CCC(N)=O)NC(=O)[C@H](Cc2cncnc2)NC(=O)[C@@](C)(CO)NC(=O)[C@H](Cc2c[nH]c3ccccc23)NC(=O)[C@H](CO)NC(=O)C(C)(C)NC1=O) [SEQ ID NO: 112]
0.072 nM	cyclo([3AzaTyrEtNAc][4Pal][Phe(4-COOH)]G[Pro(cis-4-F)][Trp(βS-Me,4-F)][Aib]EW[Aib][Ala(pyrimidin-5-yl)]Q[Dab]G[dPro(4R-Bzl(4-F))]) (SMILES CC(=O)NCCOc1ccc(C[C@@H]2NC(=O)[C@H]3C[C@@H](Cc4ccc(F)cc4)CN3C(=O)CNC(=O)[C@H](CCN)NC(=O)[C@H](CCC(N)=O)NC(=O)[C@H](Cc3cncnc3)NC(=O)C(C)(C)NC(=O)[C@H](Cc3c[nH]c4ccccc34)NC(=O)[C@H](CCC(=O)O)NC(=O)C(C)(C)NC(=O)[C@H]([C@@H](C)c3c[nH]c4cccc(F)c34)NC(=O)[C@@H]3C[C@H](F)CN3C(=O)CNC(=O)[C@H](Cc3ccc(C(=O)O)cc3)NC(=O)[C@H](Cc3ccncc3)NC2=O)cn1) [SEQ ID NO: 12]
0.018 nM	cyclo([Bip(4'-COOH)][4Pal][Phe(4-COOH)]G[Pro(cis-4-F)][Trp(βS-Me,4-F)][Aib]EW[Aib][2PyrimAla]Q[Dab]G[dPro(4R-Bzl(4-F))]) (SMILES C[C@@H](c1c[nH]c2cccc(F)c12)[C@@H]1NC(=O)[C@@H]2C[C@H](F)CN2C(=O)CNC(=O)[C@H](Cc2ccc(C(=O)O)cc2)NC(=O)[C@H](Cc2ccncc2)NC(=O)[C@H](Cc2ccc(-c3ccc(C(=O)O)cc3)cc2)NC(=O)[C@H]2C[C@@H](Cc3ccc(F)cc3)CN2C(=O)CNC(=O)[C@H](CCN)NC(=O)[C@H](CCC(N)=O)NC(=O)[C@H](Cc2ncccn2)NC(=O)C(C)(C)NC(=O)[C@H](Cc2c[nH]c3ccccc23)NC(=O)[C@H](CCC(=O)O)NC(=O)C(C)(C)NC1=O) [SEQ ID NO: 113]
0.016 nM	cyclo([Bip(4'-COOH)][4Pal][Phe(4-COOH)]G[Pro(cis-4-F)][Trp(βS-Me,4-F)][Aib]EW[Aib][Ala(4-THP)]Q[Dab]G[dPro(4R-Bzl(4-F))]) (SMILES C[C@@H](c1c[nH]c2cccc(F)c12)[C@@H]1NC(=O)[C@@H]2C[C@H](F)CN2C(=O)CNC(=O)[C@H](Cc2ccc(C(=O)O)cc2)NC(=O)[C@H](Cc2ccncc2)NC(=O)[C@H](Cc2ccc(-c3ccc(C(=O)O)cc3)cc2)NC(=O)[C@H]2C[C@@H](Cc3ccc(F)cc3)CN2C(=O)CNC(=O)[C@H](CCN)NC(=O)[C@H](CCC(N)=O)NC(=O)[C@H](CC2CCOCC2)NC(=O)C(C)(C)NC(=O)[C@H](Cc2c[nH]c3ccccc23)NC(=O)[C@H](CCC(=O)O)NC(=O)C(C)(C)NC1=O) [SEQ ID NO: 118]
0.038 nM	cyclo([Bip(4'-COOH)][Ala(1-bicyclo(1.1.1)pentyl)][Phe(4-COOH)]G[Pro(cis-4-F)][Trp(βS-Me,4-F)][Aib]SW[Aib][Orn]Q[Dab]G[dPro(4R-Bzl(4-F))]) (SMILES C[C@@H](c1c[nH]c2cccc(F)c12)[C@@H]1NC(=O)[C@@H]2C[C@H](F)CN2C(=O)CNC(=O)[C@H](Cc2ccc(C(=O)O)cc2)NC(=O)[C@H](CC23CC(C2)C3)NC(=O)[C@H](Cc2ccc(-c3ccc(C(=O)O)cc3)cc2)NC(=O)[C@H]2C[C@@H](Cc3ccc(F)cc3)CN2C(=O)CNC(=O)[C@H](CCN)NC(=O)[C@H](CCC(N)=O)NC(=O)[C@H](CCCN)NC(=O)C(C)(C)NC(=O)[C@H](Cc2c[nH]c3ccccc23)NC(=O)[C@H](CO)NC(=O)C(C)(C)NC1=O) [SEQ ID NO: 110]
0.019 nM	cyclo([Bip(4'-COOH)][4Pal][Phe(4-COOH)]G[Pro(cis-4-F)][Trp(βS-Me,4-F)][Aib]SW[d(αMeS)][Ala(pyrimidin-5-yl)]Q[Dab]G[dPro(4R-(4-pyridylmethyl))]) (SMILES C[C@@H](c1c[nH]c2cccc(F)c12)[C@@H]1NC(=O)[C@@H]2C[C@H](F)CN2C(=O)CNC(=O)[C@H](Cc2ccc(C(=O)O)cc2)NC(=O)[C@H](Cc2ccncc2)NC(=O)[C@H](Cc2ccc(-c3ccc(C(=O)O)cc3)cc2)NC(=O)[C@H]2C[C@@H](Cc3ccncc3)CN2C(=O)CNC(=O)[C@H](CCN)NC(=O)[C@H](CCC(N)=O)NC(=O)[C@H](Cc2cncnc2)NC(=O)[C@@](C)(CO)NC(=O)[C@H](Cc2c[nH]c3ccccc23)NC(=O)[C@H](CO)NC(=O)C(C)(C)NC1=O) [SEQ ID NO: 111]
0.04 nM	cyclo([Bip(4'-COOH)][Ala(4-Pyridazinyl)][Phe(4-COOH)]G[Pro(cis-4-F)][Trp(βS-Me,4-F)][Aib]EW[Aib][Ala(pyrimidin-5-yl)]Q[Dab]G[dPro(4R-Bzl(4-F))]) (SMILES C[C@@H](c1c[nH]c2cccc(F)c12)[C@@H]1NC(=O)[C@@H]2C[C@H](F)CN2C(=O)CNC(=O)[C@H](Cc2ccc(C(=O)O)cc2)NC(=O)[C@H](Cc2ccnnc2)NC(=O)[C@H](Cc2ccc(-c3ccc(C(=O)O)cc3)cc2)NC(=O)[C@H]2C[C@@H](Cc3ccc(F)cc3)CN2C(=O)CNC(=O)[C@H](CCN)NC(=O)[C@H](CCC(N)=O)NC(=O)[C@H](Cc2cncnc2)NC(=O)C(C)(C)NC(=O)[C@H](Cc2c[nH]c3ccccc23)NC(=O)[C@H](CCC(=O)O)NC(=O)C(C)(C)NC1=O) [SEQ ID NO: 116]
0.016 nM	cyclo([Bip(4'-COOH)][4Pal][Phe(4-COOH)]G[Pro(cis-4-F)][Trp(βS-Me,4-F)][Aib]EW[Aib][Ala(piperidin-4-yl)]Q[Dab]G[dPro(4R-Bzl(4-F))]) (SMILES C[C@@H](c1c[nH]c2cccc(F)c12)[C@@H]1NC(=O)[C@@H]2C[C@H](F)CN2C(=O)CNC(=O)[C@H](Cc2ccc(C(=O)O)cc2)NC(=O)[C@H](Cc2ccncc2)NC(=O)[C@H](Cc2ccc(-c3ccc(C(=O)O)cc3)cc2)NC(=O)[C@H]2C[C@@H](Cc3ccc(F)cc3)CN2C(=O)CNC(=O)[C@H](CCN)NC(=O)[C@H](CCC(N)=O)NC(=O)[C@H](CC2CCNCC2)NC(=O)C(C)(C)NC(=O)[C@H](Cc2c[nH]c3ccccc23)NC(=O)[C@H](CCC(=O)O)NC(=O)C(C)(C)NC1=O) [SEQ ID NO: 119]
0.023 nM	cyclo([Bip(4'-COOH)][4Pal][Phe(4-COOH)]G[Pro(cis-4-F)][Trp(βS-Me,4-F)][Aib]EW[Aib][Ala(4-Pyridazinyl)]Q[Dab]G[dPro(4R-Bzl(4-F))]) (SMILES C[C@@H](c1c[nH]c2cccc(F)c12)[C@@H]1NC(=O)[C@@H]2C[C@H](F)CN2C(=O)CNC(=O)[C@H](Cc2ccc(C(=O)O)cc2)NC(=O)[C@H](Cc2ccncc2)NC(=O)[C@H](Cc2ccc(-c3ccc(C(=O)O)cc3)cc2)NC(=O)[C@H]2C[C@@H](Cc3ccc(F)cc3)CN2C(=O)CNC(=O)[C@H](CCN)NC(=O)[C@H](CCC(N)=O)NC(=O)[C@H](Cc2ccnnc2)NC(=O)C(C)(C)NC(=O)[C@H](Cc2c[nH]c3ccccc23)NC(=O)[C@H](CCC(=O)O)NC(=O)C(C)(C)NC1=O) [SEQ ID NO: 115]
0.035 nM	cyclo([F4ptCCA][4Pal][Phe(4-COOH)]G[Pro(cis-4-F)][Trp(βS-Me,4-F)][Aib]EW[Aib][Ala(pyrimidin-5-yl)]Q[Dab]G[dPro(4R-Bzl(4-F))]) [SEQ ID NO: 114]
0.027 nM	cyclo([Phe(4-(cis-4-COOH-cHex))][4Pal][Phe(4-COOH)]G[Pro(cis-4-F)][Trp(βS-Me,4-F)][Aib]EW[Aib][Ala(2-pyrazinyl)]Q[Dab]G[dPro(4R-Bzl(4-F))]) (SMILES C[C@@H](c1c[nH]c2cccc(F)c12)[C@@H]1NC(=O)[C@@H]2C[C@H](F)CN2C(=O)CNC(=O)[C@H](Cc2ccc(C(=O)O)cc2)NC(=O)[C@H](Cc2ccncc2)NC(=O)[C@H](Cc2ccc([C@H]3CC[C@@H](C(=O)O)CC3)cc2)NC(=O)[C@H]2C[C@@H](Cc3ccc(F)cc3)CN2C(=O)CNC(=O)[C@H](CCN)NC(=O)[C@H](CCC(N)=O)NC(=O)[C@H](Cc2cnccn2)NC(=O)C(C)(C)NC(=O)[C@H](Cc2c[nH]c3ccccc23)NC(=O)[C@H](CCC(=O)O)NC(=O)C(C)(C)NC1=O) [SEQ ID NO: 117]
0.045 nM	cyclo([TyrEtNAc][4Pal][Phe(4-COOH)]G[Pro(cis-4-F)][Trp(βS-Me,4-F)][Aib]EW[Aib][Ala(pyrimidin-5-yl)]Q[Dap]G[dPro(4R-Bzl(4-F))]) (SMILES CC(=O)NCCOc1ccc(C[C@@H]2NC(=O)[C@H]3C[C@@H](Cc4ccc(F)cc4)CN3C(=O)CNC(=O)[C@H](CN)NC(=O)[C@H](CCC(N)=O)NC(=O)[C@H](Cc3cncnc3)NC(=O)C(C)(C)NC(=O)[C@H](Cc3c[nH]c4ccccc34)NC(=O)[C@H](CCC(=O)O)NC(=O)C(C)(C)NC(=O)[C@H]([C@@H](C)c3c[nH]c4cccc(F)c34)NC(=O)[C@@H]3C[C@H](F)CN3C(=O)CNC(=O)[C@H](Cc3ccc(C(=O)O)cc3)NC(=O)[C@H](Cc3ccncc3)NC2=O)cc1) [SEQ ID NO: 11]

From patent publication US20260242419A1, “A CYCLIC PEPTIDE FOR TRAPPING INTERLEUKIN-1 BETA” (Merck Sharp & Dohme LLC, priority 2023, published 2026)
